Experimental data as given in patent US20100135997A1 (MEDGENE, published 2010).

Molecular target: T1, HLA-A*0201 loaded with the Carcinoembryonic antigen (CEA)-derived … peptide (biotin on the C-terminal biotinylation tag)
T1 construct: Soluble, biotinylated, immobilised on a streptavidin chip
Assay: Biacore SPR
Method: SPR measures changes in refractive index expressed in response units (RU) near a sensor surface within a small flow cell, a principle that can be used to detect receptor ligand interactions and to analyse their affinity and kinetic parameters. The probe flow cells were prepared by immobilising the pMHC complexes in flow cells via biotin-tag binding. The assay was then performed by passing soluble ILT-like molecule over the surfaces of the different flow cells at a constant flow rate, measuring the SPR response in doing so.

Binder | Kd [µM] | koff [s⁻¹]
SEQ ID NO 7 (receptor, mutated soluble two domain ILT-2) MAGHLPKPTLWAEPGSVITMDQPVTLRCQGGQETQEYRLYREKKTAPWITRIPQELVKKGQFPIPSITWEHAGRYRCYYGSDTSQWSASSDPLELVVTGVYIKPTLSAQPSPVVNSGGNVTLQCDSQVAFDGFILCKEGEDEHPQCLNSQPHARGSSRAIFSVGPVSPSRRWWYRCYAYPIWTPYEWSLPSDLLELDVDG | ≤ 1 | ≤ 2
SEQ ID NO 21 (receptor, mutated soluble two domain ILT-2) MAGHLPKPTLWAEPGSVITMDQPVTLRCQGGQETQEYRLYREKKTAPWITRIPQELVKKGQFPIPSITWEHAGRYRCYYGSDTSQWSASSDPLELVVTGVYIKPTLSAQPSPVVNSGGNVTLQCDSQVAFDGFILCKEGEDEHPQCLNSQPHARGSSRAIFSVGPVSPSRRWWYRCYAYPWFTPYEWSLPSDLLELDVDG | ≤ 1 | ≤ 2
SEQ ID NO 22 (receptor, mutated soluble two domain ILT-2) MAGHLPKPTLWAEPGSVITMDQPVTLRCQGGQETQEYRLYREKKTAPWITRIPQELVKKGQFPIPSITWEHAGRYRCYYGSDTSQWSASSDPLELVVTGVYIKPTLSAQPSPVVNSGGNVTLQCDSQVAFDGFILCKEGEDEHPQCLNSQPHARGSSRAIFSVGPVSPSRRWWYRCYAYGRWLPYEWSLPSDLLELDVDG | ≤ 1 | ≤ 2
SEQ ID NO 13 (receptor, mutated soluble two domain ILT-2) MAGHLPKPTLWAEPGSVITMDQPVTLRCQGGQETQEYRLYREKKTAPWITRIPQELVKKGQFPIPSITWEHAGRYRCYYGSDTSQWSASSDPLELVVTGVYIKPTLSAQPSPVVNSGGNVTLQCDSQVAFDGFILCKEGEDEHPQCLNSQPHARGSSRAIFSVGPVSPSRRWWYRCYAYPAWTPYEWSLPSDLLELDVDG | ≤ 1 | ≤ 2
SEQ ID NO 20 (receptor, mutated soluble two domain ILT-2) MAGHLPKPTLWAEPGSVITMDQPVTLRCQGGQETQEYRLYREKKTAPWITRIPQELVKKGQFPIPSITWEHAGRYRCYYGSDTSQWSASSDPLELVVTGVYIKPTLSAQPSPVVNSGGNVTLQCDSQVAFDGFILCKEGEDEHPQCLNSQPHARGSSRAIFSVGPVSPSRRWWYRCYAYPDFTPYEWSLPSDLLELDVDG | ≤ 1 | ≤ 2
SEQ ID NO 15 (receptor, mutated soluble two domain ILT-2) MAQHLPKPTLWAEPGSVITMDQPVTLRCQGGQETQEYRLYREKKTAPWITRIPQELVKKGQFPIPSITWEHAGRYRCYYGSDTSQWSASSDPLELVVTGVYIKPTLSAQPSPVVNSGGNVTLQCDSQVSFDGFILCKEGEDEHPQCLNSQPHARGSSRAIFSVGPVSPSRRWWYRCYAYDSNSPYEWSLPSDLLELDVDG | ≤ 1 | ≤ 2
SEQ ID NO 16 (receptor, mutated soluble two domain ILT-2) MAQHLPKPTLWAEPGSVITMDQPVTLRCQGGQETQEYRLYREKKTAPWITRIPQELVKKGQFPIPSITWEHAGRYRCYYGSDTSQWSASSDPLELVVTGVYIKPTLSAQPSPVVNSGGNVTLQCDSQVTFDGFILCKEGEDEHPQCLNSQPHARGSSRAIFSVGPVSPSRRWWYRCYAYDSNSPYEWSLPSDLLELDVDG | ≤ 1 | ≤ 2
SEQ ID NO 8 (receptor, mutated soluble two domain ILT-2) MAGHLPKPTLWAEPGSVITMDQPVTLRCQGGQETQEYRLYREKKTAPWITRIPQELVKKGQFPIPSITWEHAGRYRCYYGSDTSQWSASSDPLELVVTGVYIKPTLSAQPSPVVNSGGNVTLQCDSQVAFDGFILCKEGEDEHPQCLNSQPHARGSSRAIFSVGPVSPSRRWWYRCYAYVAWAPYEWSLPSDLLELDVDG | ≤ 1 | ≤ 2
SEQ ID NO 18 (receptor, mutated soluble two domain ILT-2) MAGHLPKPTLWAEPGSVITMDQPVTLRCQGGQETQEYRLYREKKTAPWITRIPQELVKKGQFPIPSITWEHAGRYRCYYGSDTSQWSASSDPLELVVTGVYIKPTLSAQPSPVVNSGGNVTLQCDSQVAFDGFILCKEGEDEHPQCLNSQPHARGSSRAIFSVGPVSPSRRWWYRCYAYMSWAPYEWSLPSDLLELDVDG | ≤ 1 | ≤ 2
SEQ ID NO 14 (receptor, mutated soluble two domain ILT-2) MAQHLPKPTLWAEPGSVITMDQPVTLRCQGGQETQEYRLYREKKTAPWITRIPQELVKKGQFPIPSITWEHAGRYRCYYGSDTSQWSASSDPLELVVTGVYIKPTLSAQPSPVVNSGGNVTLQCDSQVDFDGFILCKEGEDEHPQCLNSQPHARGSSRAIFSVGPVSPSRRWWYRCYAYDSNSPYEWSLPSDLLELDVDG | ≤ 1 | ≤ 2
SEQ ID NO 12 (receptor, mutated soluble two domain ILT-2) MAGHLPKPTLWAEPGSVITMDQPVTLRCQGGQETQEYRLYREKKTAPWITRIPQELVKKGQFPIPSITWEHAGRYRCYYGSDTSQWSASSDPLELVVTGVYIKPTLSAQPSPVVNSGGNVTLQCDSQVAFDGFILCKEGEDEHPQCLNSQPHARGSSRAIFSVGPVSPSRRWWYRCYAYVSYWPYEWSLPSDLLELDVDG | ≤ 1 | ≤ 2

Second part, the binder after the results:

Kd [µM] | koff [s⁻¹] | Binder
≤ 1 | ≤ 2 | SEQ ID NO 10 (receptor, mutated soluble two domain ILT-2) MAGHLPKPTLWAEPGSVITMDQPVTLRCQGGQETQEYRLYREKKTAPWITRIPQELVKKGQFPIPSITWEHAGRYRCYYGSDTSQWSASSDPLELVVTGVYIKPTLSAQPSPVVNSGGNVTLQCDSQVAFDGFILCKEGEDEHPQCLNSQPHARGSSRAIFSVGPVSPSRRWWYRCYAYTDYSPYEWSLPSDLLELDVDG
≤ 1 | ≤ 2 | SEQ ID NO 9 (receptor, mutated soluble two domain ILT-2) MAGHLPKPTLWAEPGSVITMDQPVTLRCQGGQETQEYRLYREKKTAPWITRIPQELVKKGQFPIPSITWEHAGRYRCYYGSDTSQWSASSDPLELVVTGVYIKPTLSAQPSPVVNSGGNVTLQCDSQVAFDGFILCKEGEDEHPQCLNSQPHARGSSRAIFSVGPVSPSRRWWYRCYAYMNWAPYEWSLPSDLLELDVDG
≤ 1 | ≤ 2 | SEQ ID NO 17 (receptor, mutated soluble two domain ILT-2) MAQHLPKPTLWAEPGSVITMDQPVTLRCQGGQETQEYRLYREKKTAPWITRIPQELVKKGQFPIPSITWEHAGRYRCYYGSDTSQWSASSDPLELVVTGVYIKPTLSAQPSPVVNSGGNVTLQCDSQVAYDGFILCKEGEDEHPQCLNSQPHARGSSRAIFSVGPVSPSRRWWYRCYAYDSNSPYEWSLPSDLLELDVDG
≤ 1 | ≤ 2 | SEQ ID NO 11 (receptor, mutated soluble two domain ILT-2) MAGHLPKPTLWAEPGSVITMDQPVTLRCQGGQETQEYRLYREKKTAPWITRIPQELVKKGQFPIPSITWEHAGRYRCYYGSDTSQWSASSDPLELVVTGVYIKPTLSAQPSPVVNSGGNVTLQCDSQVAFDGFILCKEGEDEHPQCLNSQPHARGSSRAIFSVGPVSPSRRWWYRCYAYVDWFPYEWSLPSDLLELDVDG
≤ 1 | ≤ 2 | SEQ ID NO 23 (receptor, mutated soluble two domain ILT-2) MAGHLPKPTLWAEPGSVITMDQPVTLRCQGGQETQEYRLYREKKTAPWITRIPQELVKKGQFPIPSITWEHAGRYRCYYGSDTSQWSASSDPLELVVTGVYIKPTLSAQPSPVVNSGGNVTLQCDSQVAFDGFILCKEGEDEHPQCLNSQPHARGSSRAIFSVGPVSPSRRWWYRCYAYVEWLPYEWSLPSDLLELDVDG
